This is an account of results in publication doi:10.1101/2024.10.24.620072.

In assay [1] the target is fluorescently labeled H2a(G129C)-H2b dimer (human) (UniProt P04908). As to the kind of experiment: MST.
Assay [2] deals with human (H3-H4)2 tetramer (human) (UniProt P68431). Put plainly: MST.

On to “αSyn(121-140) peptide (from UniProt P37840 121-140)”, for which, in assay [1], the KD of one of two binding sites was determined as 500 nM and the KD of the other of two binding sites was determined as 2600 nM.

By Kd is commonly meant the free concentration of one partner at which half of the binding sites on the other are occupied at equilibrium, for simple one-to-one binding. Read a low Kd as tighter binding. For the substance “αSyn(1-131) (from UniProt P37840 1-131) (domain or fragment)”, the Kd in assay [1] was 32400 nM.

Substance “human α-Synuclein, full-length (from UniProt P37840 1-140) (natural protein)” returned a Kd in assay [2] of 50 nM.

In turn, “αSyn(1-103) (from UniProt P37840 1-103) (domain or fragment)” displayed a Kd in assay [2] of 107 nM. Against the preceding substance, the Kd is about 2.1-fold higher.
